According to patent US7393837B2, “Inhibition of PEX in the treatment of metabolic bone diseases” (McGill University, priority 1998, dated 2008):

Key:
[1] = target: T1, recombinant human PEX (Homo sapiens, UniProt P78562); assay: Membrane-bound endopeptidase assay, hydrolysis by PEX-expressing COS cell membranes (HPLC); type: biochemical; conditions: for hydrolysis of the peptide in the presence of PEX: 10 μg peptide, COS cell membranes expressing PEX, HPLC at 214 nm, FIG. 8
T1 construct: excising the full length PEX cDNA that was then inserted into pcDNA3 vector; expressed in transfected cells; host or cells: COS-7 cells, transient transfection with pPEX (pcDNA3); 100,000 x g membrane fraction
T1 sequence (P78562 1-749): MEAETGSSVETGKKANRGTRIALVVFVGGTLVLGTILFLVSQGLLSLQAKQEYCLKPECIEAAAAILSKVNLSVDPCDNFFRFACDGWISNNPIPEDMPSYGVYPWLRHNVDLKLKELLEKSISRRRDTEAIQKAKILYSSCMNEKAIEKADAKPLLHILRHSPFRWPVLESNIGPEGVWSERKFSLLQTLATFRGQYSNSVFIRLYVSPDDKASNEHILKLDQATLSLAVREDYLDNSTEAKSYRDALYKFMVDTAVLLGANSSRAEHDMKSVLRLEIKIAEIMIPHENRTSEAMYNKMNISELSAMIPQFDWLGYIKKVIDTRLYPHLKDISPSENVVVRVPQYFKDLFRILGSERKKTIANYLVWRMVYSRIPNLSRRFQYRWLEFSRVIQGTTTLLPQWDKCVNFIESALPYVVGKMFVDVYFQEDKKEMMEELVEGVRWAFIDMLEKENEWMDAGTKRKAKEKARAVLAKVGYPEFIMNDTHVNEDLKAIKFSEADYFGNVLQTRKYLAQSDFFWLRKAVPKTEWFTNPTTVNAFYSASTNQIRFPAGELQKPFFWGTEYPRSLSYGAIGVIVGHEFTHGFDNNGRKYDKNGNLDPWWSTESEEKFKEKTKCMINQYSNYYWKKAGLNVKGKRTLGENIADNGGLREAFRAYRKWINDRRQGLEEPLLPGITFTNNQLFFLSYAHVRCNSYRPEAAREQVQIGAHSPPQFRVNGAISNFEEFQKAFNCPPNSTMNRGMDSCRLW
Description: (§1) COS-7 cells transiently transfected with pcDNA3 vector alone, with vector containing human NEP cDNA (generous gift of P. Crine, Université de Montréal), or with pPEX plasmid, were washed and scraped in PBS. Following brief centrifugation, the cell pellets were resuspended in 50 mM Tris-HCl, pH 7.4 and disrupted by sonication. Homogenates were fractionated by sequential centrifugation at 1,000×g for 10 min and then at 100,000×g for 60 min. The final precipitate was washed with 50 mM Tris-HCl, pH 7.4, resuspended in the same buffer, and assayed for endopeptidase activity. The protein concentration in membrane fractions was determined by the method of Bradford with bovine serum albumin as standard.
[D-Ala^2,Leu^5] enkephalin (500 μM) was incubated with COS cell membrane preparations (˜60 μg of protein) in 100 mM Tris-HCl, pH 7.0, at 37° C. for 30 min (final volume 30 μl). The reaction was terminated by the addition of 100 μl 0.1% TFA (v/v). Production of Tyr-D-Ala-Gly was monitored using reversed-phase HPLC (Bondpak C-18 reverse phase column, Waters) with a U.V. detector set at 214 nm. A linear solvent gradient of 0% B to 40% B in 60 min was used with a flow rate of 1.5 ml/min (mobile phase A=0.1% TFA (v/v); mobile phase B=80% acetonitrile/0.1% TFA). Tyr-D-Ala-Gly was identified by co-chromatography with marker synthetic peptide. For assessing PEX endopeptidase activity, 10 μg of PTH [1-38] and PTH [1-34] peptides (Peninsula Laboratories; Belmont, Calif.) were added to the membrane preparations. For HPLC analysis of hydrolysis products, a linear solvent gradient of 0% to 50% solution B was used at a rate of 1.5 ml/min. MALDI-TOF mass spectrometry was performed on specific peptide fragments.

[2] = target: T2, recombinant human NEP (Homo sapiens, UniProt P08473); assay: Membrane-bound endopeptidase assay, hydrolysis by NEP-expressing COS cell membranes (HPLC); type: biochemical; conditions: 500 μM substrate, 37° C., 30 min; FIG. 7B
T2 construct: expressed in transfected cells; host or cells: COS-7 cells, transient transfection; 100,000 x g membrane fraction
T2 sequence (P08473 whole entry): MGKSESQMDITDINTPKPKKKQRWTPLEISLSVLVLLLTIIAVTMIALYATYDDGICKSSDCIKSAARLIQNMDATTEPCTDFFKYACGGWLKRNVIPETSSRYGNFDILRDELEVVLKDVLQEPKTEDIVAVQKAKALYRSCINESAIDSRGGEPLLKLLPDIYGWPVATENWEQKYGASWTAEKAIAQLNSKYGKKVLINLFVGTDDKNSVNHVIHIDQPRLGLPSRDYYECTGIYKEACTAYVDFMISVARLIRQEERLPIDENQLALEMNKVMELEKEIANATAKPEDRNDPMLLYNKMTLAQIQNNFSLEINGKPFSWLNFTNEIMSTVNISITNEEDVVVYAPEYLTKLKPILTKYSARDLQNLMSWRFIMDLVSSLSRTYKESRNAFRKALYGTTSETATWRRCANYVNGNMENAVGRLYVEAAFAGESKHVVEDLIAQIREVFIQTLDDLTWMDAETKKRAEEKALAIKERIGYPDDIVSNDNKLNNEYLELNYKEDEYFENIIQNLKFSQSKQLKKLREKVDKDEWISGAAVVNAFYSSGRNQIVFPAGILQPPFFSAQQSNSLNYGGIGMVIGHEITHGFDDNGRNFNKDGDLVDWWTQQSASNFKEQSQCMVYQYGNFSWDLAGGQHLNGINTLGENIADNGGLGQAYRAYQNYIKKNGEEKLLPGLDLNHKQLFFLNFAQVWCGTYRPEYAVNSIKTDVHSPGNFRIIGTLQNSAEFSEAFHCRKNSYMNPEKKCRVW
Description: as §1
[D-Ala^2,Leu^5] enkephalin (500 μM) was incubated with COS cell membrane preparations (˜60 μg of protein) in 100 mM Tris-HCl, pH 7.0, at 37° C. for 30 min (final volume 30 μl). The reaction was terminated by the addition of 100 μl 0.1% TFA (v/v). Production of Tyr-D-Ala-Gly was monitored using reversed-phase HPLC (Bondpak C-18 reverse phase column, Waters) with a U.V. detector set at 214 nm. A linear solvent gradient of 0% B to 40% B in 60 min was used with a flow rate of 1.5 ml/min (mobile phase A=0.1% TFA (v/v); mobile phase B=80% acetonitrile/0.1% TFA). Tyr-D-Ala-Gly was identified by co-chromatography with marker synthetic peptide. […]

| Substance | hydrolysis of the peptide in the presence of PEX [1] | production of Tyr-D-Ala-Gly from the substrate, PEX membranes ([1]; 500 μM substrate, 37° C., 30 min, FIG. 7C) | production of Tyr-D-Ala-Gly from the substrate, NEP membranes [2] |
| --- | --- | --- | --- |
| PTH [1-38]: human parathyroid hormone peptide 1-38 (Peninsula Laboratories), used as PEX substrate (SVSEIQLMHNLGKHLNSMERVEWLRKKLQDVHNFVALG) | hydrolyzed | – | – |
| PTH [1-34]: human parathyroid hormone peptide 1-34 (Peninsula Laboratories), used as PEX substrate | hydrolyzed | – | – |
| [D-Ala^2, Leu^5] enkephalin | – | evident only in NEP-expressing membrane preparations | evident only in NEP-expressing membrane preparations |
